In paper PMC4983110, “Shared and distinct functions of the pseudokinase CORYNE (CRN) in shoot and root stem cell maintenance of Arabidopsis” (Journal of Experimental Botany, 2016):
Residue numbers refer to the chain shown, from its start. In names and notes the source's numbering stands. Values belong to the molecule of their own block, whether it stands above or below them.

How the values were obtained:
Experiment in all cases: FRET or BRET; FRET-APB (acceptor photobleaching) in transiently transformed Nicotiana benthamiana cells; GFP donor, mCherry acceptor bleached in a region along the plasma membrane; apparent FRET efficiency as donor-dequenching in %
[1] = target: CLAVATA2 (CLV2), wild type, tagged with mCherry (Arabidopsis thaliana) (UniProt O80809)
[2] = target: T1, CLAVATA2 (CLV2), wild type, tagged with mCherry (Arabidopsis thaliana, UniProt O80809 26-720); details: partners not purified
T1 construct: CLAVATA2 (CLV2), Arabidopsis thaliana, LRR receptor-like protein, wild type, from cDNA; also called CLV2-mCherry; source: N. benthamiana, transiently expressed from an inducible vector, in living cells
T1 sequence (looked up): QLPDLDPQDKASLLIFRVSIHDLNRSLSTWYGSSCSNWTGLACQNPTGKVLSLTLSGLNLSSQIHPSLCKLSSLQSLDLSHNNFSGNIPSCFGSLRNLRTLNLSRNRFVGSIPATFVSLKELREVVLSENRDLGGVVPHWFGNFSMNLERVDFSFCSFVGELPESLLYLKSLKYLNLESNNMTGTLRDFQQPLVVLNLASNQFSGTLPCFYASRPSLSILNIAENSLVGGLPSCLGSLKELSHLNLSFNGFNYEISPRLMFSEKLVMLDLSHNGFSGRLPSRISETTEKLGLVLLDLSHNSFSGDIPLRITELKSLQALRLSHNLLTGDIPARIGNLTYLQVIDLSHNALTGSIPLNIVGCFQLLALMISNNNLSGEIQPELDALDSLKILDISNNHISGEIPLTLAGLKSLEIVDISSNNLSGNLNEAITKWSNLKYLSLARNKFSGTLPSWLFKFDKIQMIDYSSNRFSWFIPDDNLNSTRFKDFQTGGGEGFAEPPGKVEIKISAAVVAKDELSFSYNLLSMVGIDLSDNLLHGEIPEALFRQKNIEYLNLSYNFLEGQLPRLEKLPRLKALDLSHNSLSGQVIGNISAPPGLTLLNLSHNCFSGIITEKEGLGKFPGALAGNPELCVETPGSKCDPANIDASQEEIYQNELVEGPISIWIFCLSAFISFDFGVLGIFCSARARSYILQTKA

[3] = target: T2, CLAVATA2 (CLV2), wild type, tagged with GFP (Arabidopsis thaliana, UniProt O80809 26-720); details: partners not purified
T2 construct: CLAVATA2 (CLV2), Arabidopsis thaliana, LRR receptor-like protein, wild type, from cDNA; also called CLV2-GFP; source: N. benthamiana, transiently expressed from an inducible vector, in living cells
T2 sequence (looked up): T1 sequence (looked up)

[4] = target: chimeric protein of the CLV2 LRR-receptor and its TMD fused to the CRN kinase domain, tagged with GFP (Arabidopsis thaliana) (UniProt Q9LYU7)
[5] = target: CLV2 with the first conserved arginine of the RxR motif replaced with an alanine, tagged with GFP (Arabidopsis thaliana) (UniProt O80809)
[6] = target: CLV2 with the entire RxR motif deleted, tagged with GFP (Arabidopsis thaliana) (UniProt O80809)

Molecule: CRN lacking the proximal part of the extracellular domain adjacent to the TMD, tagged with GFP (from UniProt Q9LYU7 34-62) (natural protein)
D-d (%) (donor-dequenching, apparent FRET efficiency) [1]: 10.5%

Molecule: CRN lacking the N-terminal, distal part of the extracellular domain, tagged with GFP (from UniProt Q9LYU7 34-62) (natural protein)
D-d (%) (donor-dequenching, apparent FRET efficiency) [1]: 11.2%

Molecule: CRN lacking the entire extracellular domain, tagged with GFP (from UniProt Q9LYU7 34-62) (natural protein)
D-d (%) (donor-dequenching, apparent FRET efficiency) [1]: 7.2%

B2: CORYNE (CRN), wild type, tagged with mCherry (natural protein, Arabidopsis thaliana, UniProt Q9LYU7 34-401, looked up)
chain: TSCRRRTVKHLSTTSTSSTPLESRITSKVIVISIVSGILTGLVSALVLAFLVRSIVKFMKQTPILKGPVVFSPKITPKSLHAALSNGIQLLGSDLNGKYYKMVLDNGLVVAVKRLGSLEGVGSPESSSSKSVKRRLQKELELLAGLRHRNLMSLRAYVRESDEFSLVYDYMPNGSLEDVMNKVRTKEVELGWEIRLRVAVGIVKGLQYLHFSCETQILHYNLKPTNVMLDSEFEPRLADCGLAKIMPSSHTAVSCYSAPESSQSNRYTDKSDIFSFGMILGVLLTGRDPTHPFCEESASGGSLGQWLKHLQQSGEAREALDKTILGEEVEEDEMLMALRITIICLSDFPADRPSSDELVHMLTQLHSF
notes: CORYNE (CRN), Arabidopsis thaliana, wild type, from cDNA; the longer splice variant, not gene model AT5G13290.1; also called CRN-mCherry; source: N. benthamiana, transiently expressed from an inducible vector, in living cells
D-d (%) (donor-dequenching, apparent FRET efficiency) [3]: 11.7% | D-d (%) (donor-dequenching, apparent FRET efficiency) [4]: 5.7% | D-d (%) (donor-dequenching, apparent FRET efficiency) [5]: 14.2% | D-d (%) (donor-dequenching, apparent FRET efficiency) [6]: 11.4%

B3: CORYNE (CRN), wild type, tagged with GFP (natural protein, Arabidopsis thaliana, UniProt Q9LYU7 34-401, looked up)
chain: B2 chain
notes: CORYNE (CRN), Arabidopsis thaliana, wild type, from cDNA; Residue numbers (G70, S156, Q296) count on the longer splice variant, not on gene model AT5G13290.1, on which S156 is S131; also called CRN-GFP; source: N. benthamiana, transiently expressed from an inducible vector, in living cells
D-d (%) (donor-dequenching, apparent FRET efficiency) [2]: 10.5%

B4: CRN with S156A (phosphomute variant), tagged with GFP (natural protein, Arabidopsis thaliana, UniProt Q9LYU7 34-401, looked up)
chain: B2 chain with S123A
notes: CRN, Arabidopsis thaliana, serine 156 replaced with alanine; S156 is S131 on gene model AT5G13290.1 (the shorter splice variant); also called CR(SA)-GFP; CR(SA); source: N. benthamiana, transiently expressed, in living cells
D-d (%) (donor-dequenching, apparent FRET efficiency) [2]: 13.5%

Results, then the molecule that gave them:

D-d (%) (donor-dequenching, apparent FRET efficiency) [1]: 10.3%
Molecule: chimera of CRN in which the kinase is replaced with the kinase domain of CLV1, tagged with GFP (from UniProt Q9SYQ8 692-968)

D-d (%) (donor-dequenching, apparent FRET efficiency) [1]: 24.5%
Molecule: shortened CRN protein lacking the kinase, tagged with GFP (domain or fragment)

D-d (%) (donor-dequenching, apparent FRET efficiency) [2]: 18.3%
B1: crn-3 variant of CRN (translational stop at Q296, kinase domain shortened by one third), tagged with GFP (domain or fragment, Arabidopsis thaliana, UniProt Q9LYU7 34-295, looked up)
chain: TSCRRRTVKHLSTTSTSSTPLESRITSKVIVISIVSGILTGLVSALVLAFLVRSIVKFMKQTPILKGPVVFSPKITPKSLHAALSNGIQLLGSDLNGKYYKMVLDNGLVVAVKRLGSLEGVGSPESSSSKSVKRRLQKELELLAGLRHRNLMSLRAYVRESDEFSLVYDYMPNGSLEDVMNKVRTKEVELGWEIRLRVAVGIVKGLQYLHFSCETQILHYNLKPTNVMLDSEFEPRLADCGLAKIMPSSHTAVSCYSAPESS
notes: signal peptide in the construct; CRN, Arabidopsis thaliana, truncated by the point mutation at Q296 of the EMS-induced crn-3 allele, which causes a translational stop; also called crn-3-GFP; source: N. benthamiana, transiently expressed, in living cells

D-d (%) (donor-dequenching, apparent FRET efficiency) [2]: 5.2%
B5: crn-1 variant of CRN (G70E in the predicted TMD), tagged with GFP (natural protein, Arabidopsis thaliana, UniProt Q9LYU7 34-401, looked up)
chain: B2 chain with G37E
notes: CRN, Arabidopsis thaliana, with the amino acid exchange G70E of the EMS-induced crn-1 allele in the predicted TMD; also called crn-1-GFP; source: N. benthamiana, transiently expressed, in living cells

D-d (%) (donor-dequenching, apparent FRET efficiency) [2]: 12.2%
B6: CRN with S156D (putative phosphomimetic variant), tagged with GFP (natural protein, Arabidopsis thaliana, UniProt Q9LYU7 34-401, looked up)
chain: B2 chain with S123D
notes: CRN, Arabidopsis thaliana, serine 156 replaced with aspartic acid; S156 is S131 on gene model AT5G13290.1 (the shorter splice variant); also called CR(SD)-GFP; CR(SD); source: N. benthamiana, transiently expressed, in living cells
